The results in this text go back to the Immune Epitope Database (IEDB).

What all share (test): IEDB peptide-MHC binding, purified MHC/competitive/radioactivity; filed as Kd, often an IC50 or EC50 that approximates it; ≥ and ≤ were set here for values at or beyond the usual limits of such assays
Assay [1] deals with HLA-B*07:02.
The target in assay [2] is HLA-B*35:01.
In assay [3] the target is HLA-B*51:01.
Assay [4] deals with HLA-B*53:01.
The target of assay [5] is HLA-B*54:01.
Assay [6] deals with HLA-A*02:01.
The target in assay [7] is HLA-A*02:02.
Assay [8] deals with HLA-A*02:03.
The target in assay [9] is HLA-A*02:06.
Assay [10] has as its target HLA-A*03:01.
For assay [11], the target named is HLA-A*11:01.
In assay [12] the target is HLA-A*31:01.
The target of assay [13] is HLA-A*33:01.
Assay [14] addresses HLA-A*68:01.
In assay [15] the target is HLA-A*68:02.
Assay [16] has as its target HLA-B*08:01. Particulars: source organism: Hepatitis C virus (isolate 1).
Assay [17] addresses HLA-B*18:01. Particulars: source organism: Hepatitis C virus (isolate 1).
Assay [18] addresses HLA-B*40:01. Particulars: source organism: Hepatitis C virus (isolate 1).
The target in assay [19] is HLA-B*40:02. Particulars: source organism: Hepatitis C virus (isolate 1).
Assay [20] addresses HLA-B*44:02. Particulars: source organism: Hepatitis C virus (isolate 1).
Assay [21] has as its target HLA-B*44:03. To be noted: source organism: Hepatitis C virus (isolate 1).
The mark [22] stands for this setting: source organism: Vaccinia virus WR.
Setting [23] is: source organism: SARS coronavirus Tor2.
The mark [24] stands for this setting: source organism: Triticum aestivum.
Setting [25] is: source organism: Mammarenavirus guanaritoense.
[26] abbreviates: source organism: Hepatitis C virus (isolate 1).

On to IPKFKVTGSY, for which the Kd – broadly, the free concentration of one partner at which half of the binding sites on the other are occupied at equilibrium, for simple one-to-one binding – in assay [1] (setting [22]) is 6.6 µM; in [2] (setting [22]), 1.23 µM; in [3] (setting [22]), no less than 69.6 µM; in assay [4] (setting [22]), no less than 69.9 µM; in [5] (setting [22]), no less than 58.2 µM.

As for APHGVVFLHV, the Kd in assay [1] (setting [23]) was found to be 0.254 µM; in [2] (setting [23]), 4.36 µM; in [3] (setting [23]) it was 7.81 µM; in assay [4] (setting [23]), 0.749 µM; in [5] (setting [23]) it was 0.288 µM.

For QPYPQPQPQY, the dissociation constant Kd in assay [1] (setting [24]) was no less than 69.6 µM; in assay [2] (setting [24]), 0.048 µM; in assay [3] (setting [24]) it was 10.4 µM; in [4] (setting [24]) it was 1.62 µM; in assay [5] (setting [24]), no less than 69.9 µM.

As for LPNTLVFQA, the Kd was no less than 38.3 µM in assay [1] (setting [25]); 0.0828 µM in [2] (setting [25]); 4.4 µM in assay [3] (setting [25]); 1.02 µM in assay [4] (setting [25]); 0.00814 µM in [5] (setting [25]).

YPTNDIPSLF: the Kd in assay [1] (setting [22]) is 1.97 µM; in assay [2] (setting [22]), 0.00863 µM; in assay [3] (setting [22]) it was 4.27 µM; in assay [4] (setting [22]), 0.00767 µM; in [5] (setting [22]), 0.473 µM.

On to IPYLRNYMVI, for which the Kd was no less than 69.4 µM in [6] (setting [22]); no less than 70 µM in assay [7] (setting [22]); no less than 70.4 µM in assay [8] (setting [22]); no less than 69.8 µM in assay [9] (setting [22]); 0.158 µM in [10] (setting [22]); 1.02 µM in [11] (setting [22]). Further, the Kd was no less than 37 µM in assay [12] (setting [22]); 15.5 µM in [13] (setting [22]); no less than 21.4 µM in assay [14] (setting [22]); 15.5 µM in assay [15] (setting [22]); 0.323 µM in assay [1] (setting [22]); no less than 43.9 µM in assay [2] (setting [22]). In addition, the values for the Kd in assay [3] (setting [22]), in [4] (setting [22]) and in [5] (setting [22]) were no less than 25 µM, 0.895 µM and 0.829 µM, respectively.

Turning to ATDALMTGY, the Kd in assay [6] (setting [26]) was 1.45 µM; in [7] (setting [26]), 1.58 µM; in [8] (setting [26]) it was 5.92 µM; in assay [9] (setting [26]), 5.65 µM; in assay [10] (setting [26]), 3.32 µM; in assay [11] (setting [26]) it was 0.0196 µM. Also, the Kd in assay [12] (setting [26]) was no less than 72.3 µM; in assay [13] (setting [26]), no less than 77.7 µM; in assay [14] (setting [26]), no less than 77.7 µM; in assay [15] (setting [26]), no less than 69.8 µM; in assay [1] (setting [26]), no less than 32.9 µM; in assay [16], no less than 64.7 µM. The dissociation constant Kd in [17] was no less than 77.5 µM; in assay [2] (setting [26]), no less than 36.4 µM; in assay [18], no less than 76.2 µM; in assay [19] it was no less than 77.3 µM; in assay [20], no less than 78 µM; in assay [21] it was no less than 78.2 µM. For the same sequence, the results for the equilibrium dissociation constant (Kd) in [3] (setting [26]), in [4] (setting [26]) and in [5] (setting [26]) were no less than 77.5 µM, no less than 78.2 µM and no less than 63.1 µM, respectively.

Take WPNNCGWKIY: the Kd in assay [1] (setting [22]) was no less than 22.8 µM; in assay [2] (setting [22]), 0.593 µM; in [3] (setting [22]), no less than 69.6 µM; in assay [4] (setting [22]), 5.57 µM; in assay [5] (setting [22]), 1.14 µM.

Take KQYIVATLMK: the Kd in assay [6] (setting [22]) stood at 11.2 µM; in [7] (setting [22]), 10.6 µM; in assay [8] (setting [22]) it was 9.86 µM; in assay [9] (setting [22]) it was 11.4 µM; in assay [10] (setting [22]), 0.0056 µM; in assay [11] (setting [22]), 0.00378 µM. Further, the Kd was 0.00824 µM in assay [12] (setting [22]); 1.15 µM in assay [13] (setting [22]); 1.34 µM in assay [14] (setting [22]); no less than 49 µM in [15] (setting [22]); no less than 69.6 µM in assay [1] (setting [22]); 18.7 µM in [2] (setting [22]). Besides, the Kd is no less than 35 µM in assay [3] (setting [22]), no less than 69.9 µM in assay [4] (setting [22]) and 13.7 µM in assay [5] (setting [22]).

For the sequence APGSPTNLEF, the Kd is 0.0542 µM in assay [1] (setting [22]); 0.85 µM in [2] (setting [22]); no less than 69.6 µM in [3] (setting [22]); 0.556 µM in [4] (setting [22]); no less than 39.4 µM in [5] (setting [22]).

For the sequence KPPISFPLCA, the Kd in assay [1] (setting [23]) was 17.2 µM; in assay [2] (setting [23]) it was no less than 42.5 µM; in assay [3] (setting [23]), 9.52 µM; in assay [4] (setting [23]) it was no less than 31.5 µM; in assay [5] (setting [23]) it was 3.87 µM.

FPGLYGASI: the Kd came to 0.0809 µM in assay [1] (setting [22]); 0.506 µM in [2] (setting [22]); 0.137 µM in assay [3] (setting [22]); 0.0092 µM in assay [4] (setting [22]); 0.0184 µM in assay [5] (setting [22]).

Consider KPNTWCLRCL, for which the Kd in [1] (setting [23]) was 0.339 µM; in assay [2] (setting [23]), no less than 69.9 µM; in [3] (setting [23]), no less than 69.6 µM; in assay [4] (setting [23]), 2.44 µM; in [5] (setting [23]), no less than 31.1 µM.

For the sequence FPSTQRDYY, the Kd was no less than 77.5 µM in assay [1] (setting [22]); 0.00108 µM in assay [2] (setting [22]); no less than 77.5 µM in [3] (setting [22]); 0.00115 µM in assay [4] (setting [22]); 3.94 µM in [5] (setting [22]).

Turning to ISIIVLFQR, the Kd in assay [6] (setting [22]) amounted to 2.4 µM; in [7] (setting [22]), 6.72 µM; in assay [8] (setting [22]), 9.05 µM; in assay [9] (setting [22]) it was 9.07 µM; in [10] (setting [22]), 0.689 µM; in assay [11] (setting [22]) it was 0.93 µM. Further, the Kd in assay [12] (setting [22]) was 0.00112 µM; in [13] (setting [22]), 0.252 µM; in assay [14] (setting [22]) it was 0.00326 µM; in assay [15] (setting [22]), 8.93 µM; in assay [1] (setting [22]), 2.22 µM; in [2] (setting [22]), no less than 43.4 µM. Further, the Kd in assay [3] (setting [22]) is no less than 21 µM; in assay [4] (setting [22]) it was no less than 21.5 µM; in assay [5] (setting [22]) it was 7.68 µM.

Regarding EPISILDRI, the dissociation constant Kd is no less than 28.8 µM in assay [1] (setting [22]); 4.81 µM in assay [2] (setting [22]); 0.0373 µM in assay [3] (setting [22]); 0.194 µM in [4] (setting [22]); 0.82 µM in assay [5] (setting [22]).
